Molecular target: the molecule itself
Experiment: negative-stain transmission electron microscopy; purified AtTCP21 on a glow-discharged carbon-coated copper grid, negatively stained with 2% uranyl acetate; protein dialyzed against 25 mM HEPES pH 7.2, 150 mM NaCl

B1: Arabidopsis thaliana TCP21 (natural protein)
chain: not shown
notes: full-length protein expressed from cDNA; also called AtTCP21; recombinant AtTCP21; source: E. coli BL21(DE3), pET28a, purified (Ni-NTA, SEC)
B1: binds.

— article PMC10525234, “Antifungal Action of Arabidopsis thaliana TCP21 via Induction of Oxidative Stress and Apoptosis” (Antioxidants, 2023)
